The values that follow come from KR20230087219A (dated 2023).

Test [1] deals with T1, SARS-CoV nucleocapsid protein (Sino Biological Cat. No. 40143-V08B) (SARS-CoV, UniProt P59595 1-422).
T1 construct: also called SARS-CoV NP
The test can be described thus: indirect LFIA, NP fixed on nitrocellulose, hybridoma culture medium.

For test [2], the target named is T2, MERS-CoV nucleocapsid protein (Sino Biological Cat. No. 40068V08B) (MERS-CoV, UniProt K9N4V7 1-411).
T2 construct: also called MERS-CoV NP; MERS NP
Described as above.

B1: 79C12 (antibody, V domains shown)
VH: EVKLEESGGGLVQPGGSMKLSCVASGFTFSDYWMNWVRQSPEKGLEWVAEIRLKSNNYATHYAESVKGRFTISRDDSKSSVYLQMNNLRAEDTGIYYCTRAAMDYWGQGTSVTVSS
VL: not shown
notes: also called monoclonal antibody 79C12
Consider B1, for which the binding result in test [1] and in test [2] was “no binding” in each case.

B2: 54G6 (antibody, V domains shown)
VH: EVQGVESGGGLVQPGGSMKLSCAASGFTFSDYWMNWVRQSPEKGLEWVGEIRLKSNNYATHYAESVKGRFTISRDDSKSSIHLQMNNLRAEDTGIYYCTRYAMDYWGQGTTVTVSS
VL: GIVMTQSPSSLAVSPGEKVTMSCKSSQSLLNSRTRKNHLAWYQQKPGQSPKLLIYWASTKDSGVPDRFTGSGSGTDFTLTISSVQAEDLAVYYCKQSYNLFTFGSGTKLEIK
notes: also called monoclonal antibody 54G6
As for B2, the binding result in test [1] and in test [2] was “no binding” in each case.

B3: 54G10 (antibody, V domains shown)
VH: EVTLKVCGPGILQPSQTLSLTCSFSGFSLSTSGMGVGWIRQPSGKGLEWLAHIWWDDVKRYNPALKSRLTISKDTSSSQVFLKIASVDTADTATYYCARYYRYDVRWGQGTLVTVSA
VL: DIVMTQTPKFLLVSAGDRVTITCKASQSVSNDVAWYQQKPGQSPTLLIYSASNRYTGVPDRFTGSGYGTDFTFTISTVQAEDLAVYFCQQDYSSPLTFGAGTKLELK
notes: also called monoclonal antibody 54G10
Consider B3, for which the binding result in test [1] and in test [2] was “no binding” each time.
